assay: yeast display, Sf9 membrane polyspecificity reagent, FACS + sequencing; frameworks hold sequencing errors
How it was run: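 Nanobodies came from a synthetic yeast display library in Saccharomyces cerevisiae BJ5465, induced with galactose for 36–48 hours and stained for 1 hour at 4 °C with 10% biotinylated, detergent-solubilized Sf9 membrane reagent. Cells were enriched on streptavidin microbeads and then FACS-sorted, with low and high (top ~1%) gates set on anti-HA fluorescence for expression and streptavidin fluorescence for reagent binding. Each polyreactivity label reflects the gate a clone came from. Genes were amplified by colony PCR, sequenced by MiSeq 2 × 250 and filtered by CDR length.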

| Sequence | polyreactivity (PSR sort gate) |
| --- | --- |
| QVQLVESGGGLVQAGGSLRLSCAASGRIFLHYAMGWYRQAPGKERELVAAISRSGGSTYYADSVKGRFTISRDNAKNTVYLQMNSLKPEDTAVYYCAAAYPFKTTEGYFYWGQGTQVTVSS | high polyreactivity |
| QVQLVESGGCLVQAGGSLRLSCAASGRTFRVNAMGWYRQAPGKEWELVAAITWRGGSTYYADSVKGRFTISRDIAKYTVYLQMNSLKPEDTAVYYCAARYSSSSRRQKSDYWGQGTQVTVSS | high polyreactivity |
| QVQLEESGGGLVQAGGSHRLSCAASGIIFSKYAMGWYRPAPGKEREFGAAISQRGGRTYYADSVKGRFTISRDNAKNTVYLQMNSLNTEDTAVYYCAATGTGGVYPLDYGGQGTQVTVSS | high polyreactivity |
| QVQLVESGGGLVQAGGSLRLSCAASGSIFAYYAMGWYRQAPGKERELVADITSSGGITYYADSVKGRFTISRDNAKNTVYLQMISLKPEDTAVYYCNADSWAIGGGSYPFDYWGQGTQVTVSS | low polyreactivity |
| QVQLVESGGGLVQAGGSLRLSCAASGRIFGIYAMGWYRQAPGKERELVAAISKSGARTYYADSVKGRFTISRDNAKNTVFLQMNSLKPEDTAVYYCNAYRRKYYFTYGSWGQGTQVTVSS | high polyreactivity |
| QVQLVESGGGLVQAGGSLRLSCAASGSIITYYAMGWYRQAPGKDSELVAVISASGGRTYYADSVKGRFTISRDNAKNTVYLQMISLKPEDTAVYYCAAYQSIYSFKFGYWGQGTQVTVSS | high polyreactivity |
| QVQLVESGGGLVQAGGSLRLTCAASGFTFRYYTMGWYRQAPGTERELVARISNRGGSTYYADSVKGRFTISRDNAKNTVYLQMNSLKPEDTAVFYCAAARRYYTYYREDYYYWGQGTQVTVSS | high polyreactivity |
| QVQLVESGGGLVQAGGSLRLSCAAYGFIFGGNAMGWYRQAPGKERELVAAITARSGSTYYADSVKGRFTISRDNAKNTVYLQMNSLKPEDTAVYYCATPVYRSTYEYDYWGQGTQVTVSS | low polyreactivity |
| QVQLVESGGGLVQAVGSLRLSCAASGFPFRRYALGCYRQAPGKERELDATISSSGASTYYADSVKGRFTISRDHAKNTVYFKMIRLKPVDTAVYYCAATKGSICKLYLYCLFDYWGQGTQVTVSS | high polyreactivity |
| QVQLVESGGGLVQAGGSLRLSCAASGRIFYGNAMGWYRQAPGKERELVAAITRSGSSTYYADSVKGRFTISRDNAKNTVYLQMNSLKPEVTAVYYCAVKYFDYVGQYAYYYWGQGTQVTVSS | high polyreactivity |
| QVQLVESGGGLVQAGGSLRVSCAASGYTFVIYAMGWYRQAPGKERELVAAITTIGGRTYYADSVKGRFTISRDNAKNTVYLQMYSLKPEDTAVYYCATAAVTPVWYDYWGQGTQVTVSS | low polyreactivity |
| QVQLVESGGGLVQAGGSLRLSCAASGFIFTDYAMGWYRQATGQEREFVAAIDWSGGNTYYADSVKGRFTISRDNAKNTVYLQLNSLKPEDTAVFFCSASGSAREYDYWGQGTQVTVSS | low polyreactivity |
| QVQLVESGGGLVHAGGSLRLSCAASGRTIGYYAMGWYRQAPGKERELVAAISWSGGSTYYADSVKGRFTISRDIAKNTVYLQMNSLKPEATAVYYCAAKYSFRAAHYYYWGQGTQVTVSS | high polyreactivity |
| QVQLVESGGGLVQAGGSLRLSCAASGRIFVFNAMGWYRQAPGKERELVAAITWSGGTTYYADSVKGRFTISRDNAKNTVYLQMNSLKPEDTAVYFCNAYLNRRMGYWGQGTQVTVSS | high polyreactivity |
| QVQLVESGGGLVQAGGSLRLSCAAYGYIFRLYAMGWYRQAPGKERELVAGISTGGRTNYADSVKGRFTISRDNAKNTVYLQMNSLKPEDTAVYYCAAAWHTAYWVVSDSLGGGYWGQGTQVTVSS | low polyreactivity |
| QVQLVESGRGLVQAGGSLRLSCAASGSIFSSYAMGWYRQAPGKERELVAAITWSGGRTYYADSVKGRFTISRDNAKNTVYLQMNSLKPEDTAVYYCNAVYLAYGGDYWGQGTQVTVSS | high polyreactivity |
| QVQLQESGGGLVQAGGSLRLSCAASGSIFVSVTMGWYRQAPGKERELVASIGRGSTTNHADSVKGRFTISRDNAKNIVYLLMNSLKPEDTAVYYCASLESYGKYHGYWGQGTQVTVSS | low polyreactivity |
